What was measured:
[1] = biological target: JF646-labeled Mcm2-7 (MCM) hexamer on DNA after incubation with ORC, Cdc6 and ATP (S. cerevisiae) (UniProt P29469); experiment: single-molecule fluorescence colocalisation on optically trapped DNA (confocal microscopy, bleaching-step counting); bulk incubation of 5 nM ORC, 10 nM Cdc6, 100 nM MCM-Cdt1 with 1 nM 21.2 kbp DNA in 5 mM ATP for 30 min at 30°C, then high-salt wash (500 mM NaCl) in the flow cell before imaging; MCM hexamer with MCM hexamer (double hexamer) on DNA
[2] = biological target: JF646-labeled Mcm2-7 (MCM) hexamer on DNA after incubation with ORC, Cdc6 and ATP (S. cerevisiae) (UniProt P29469); experiment: single-molecule fluorescence colocalisation on optically trapped DNA (confocal microscopy, bleaching-step counting); bulk incubation of 5 nM ORC, 10 nM Cdc6, 100 nM MCM-Cdt1 with 1 nM 21.2 kbp DNA in 5 mM ATP for 30 min at 30°C, diluted 1000x, injected into the flow cell and imaged, no high-salt wash; all proteins on DNA

JF646-labeled Mcm2-7 (MCM) hexamer on DNA after incubation with ORC, Cdc6 and ATP, P29469 1-868; P24279 1-971; P30665 1-933; P29496 1-775; P53091 1-1017; P38132 1-845
percent of foci with 2 MCM after high-salt wash [1]: 24%
stoichiometry N [1]: 2
percent of MCM-only foci with two or more MCMs [2]: 52%

— paper PMC7998030
